Experimental data: PMC9340783

What was measured:
[1] = target: hGITR ECD hFc (human) (UniProt Q9Y5U5); test: SPR
[2] = target: human GITR on 293F‐hGITR cells (human) (UniProt Q9Y5U5)
[3] = target: hGITR ECD hFc (human) (UniProt Q9Y5U5); test: SPR; Biacore T200; hGITR ECD hFc immobilised on a Series S CM5 chip; antibody 0, 3.125, 6.25, 12.5, 25 and 50 nM; association 180 s, dissociation 600 s
[4] = target: cynoGITR ECD hFc (cynomolgus); test: ELISA; indirect ELISA; antigen hFc fusion protein coated on 96-well plates (1 μg·mL^−1 overnight at 4 °C in Fig. 3B), antibody added, detected with anti-rat IgG/hIgG-peroxidase antibody
[5] = target: hGITR ECD hFc (human) (UniProt Q9Y5U5); test: as above
[6] = target: cynoGITR on 293F‐cynoGITR cells (cynomolgus); test: flow cytometry on cells; 293F‐hGITR or 293F‐cynoGITR cells incubated with antibodies at 4 °C for 1 h, fluorescent anti-rat/human secondary antibody; EC50 of MFI curve
[7] = target: human GITR on 293F‐hGITR cells (human) (UniProt Q9Y5U5); test: as above

hGITR ECD hFc (human), sequence (Q9Y5U5 other isoform, or with tags, fused parts or gaps): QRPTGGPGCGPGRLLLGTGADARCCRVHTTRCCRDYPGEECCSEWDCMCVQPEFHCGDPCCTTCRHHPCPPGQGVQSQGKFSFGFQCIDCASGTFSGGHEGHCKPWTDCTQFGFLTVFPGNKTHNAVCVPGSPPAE
human GITR on 293F‐hGITR cells (human), sequence (Q9Y5U5 26-241): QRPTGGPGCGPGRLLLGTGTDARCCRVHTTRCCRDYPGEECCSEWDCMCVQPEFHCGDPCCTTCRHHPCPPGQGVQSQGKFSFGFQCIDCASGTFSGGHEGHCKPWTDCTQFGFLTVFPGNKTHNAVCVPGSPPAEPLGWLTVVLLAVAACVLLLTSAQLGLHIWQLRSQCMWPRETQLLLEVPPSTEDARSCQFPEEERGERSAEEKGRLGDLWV

Row | Substance | koff [1] [s⁻¹] | NF‐ĸB luciferase reporter assay, Crosslinking, EC50 [2] [pM] | NF‐ĸB luciferase reporter assay, Crosslinking, Top ratio [2] [fold] | NF‐ĸB luciferase reporter assay, No crosslinking, EC50 [2] [pM] | NF‐ĸB luciferase reporter assay, No crosslinking, Top ratio [2] [fold] | T‐cell activation (IFN‐γ secretion), Donor#1, EC50 [2] [pM] | T‐cell activation (IFN‐γ secretion), Donor#2, EC50 [2] [pM] | T‐cell activation (IFN‐γ secretion), Donor#3, EC50 [2] [pM] | Kd [3] [pM] | EC50 [4] [pM] | EC50 [5] [pM] | EC50 [6] [pM] | EC50 [7] [pM]
1 | Tab6C8 | 0.0044 |  |  |  |  |  |  |  |  |  |  |  | 
2 | Tab6C8 (antibody) |  | 336 | 32 | 829 | 14 | 10.6 | 5.59 | 6.81 | 3820 | 1120 | 954 | 7 | 27
